Source: IntAct's records for PubMed 21903585

B1: RAD51-associated protein 1 (Homo sapiens), Q96B01-2 (parent)
chain: MVRPVRHKKPVNYSQFDHSDSDDDFVSATVPLNKKSRTAPKELKQDKPKPNLNNLRKEEIPVQEKTPKKRMALDDKLYQRDLEVALALSVKELPTVTTNVQNSQDKSIEKHGSSKIETMNKSPHISNCSVASDYLDLDKITVEDDVGGVQGKRKAASKAAAQQRKILLEGSDGDSANDTEPDFAPGEDSEDDSDFCESEDNDEDFSMRKSKVKEIKKKEVKVKSPVEKKEKKSKSKCNALVTSVDSAPAAVKSESQSLPKKVSLSSDTTRKPLEIRSPSAESKKPKWVPPAASGGSRSSSSPLVVVSVKSPNQSLRLGLSRLARVKPLHPNATST
partner: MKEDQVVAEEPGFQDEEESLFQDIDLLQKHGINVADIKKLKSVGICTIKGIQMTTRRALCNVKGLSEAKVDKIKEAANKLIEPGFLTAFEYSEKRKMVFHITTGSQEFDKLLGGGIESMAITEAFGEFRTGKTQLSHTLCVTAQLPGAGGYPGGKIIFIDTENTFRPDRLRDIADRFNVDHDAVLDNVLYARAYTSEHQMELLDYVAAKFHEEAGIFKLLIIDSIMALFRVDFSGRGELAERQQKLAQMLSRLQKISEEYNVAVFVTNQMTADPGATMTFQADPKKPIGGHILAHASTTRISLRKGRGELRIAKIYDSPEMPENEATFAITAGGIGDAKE

Variants of: B1
Conditions: with dmc1_human DMC1, Q14565

Row | effect of a mutation on the interaction | Variant
1 | disrupting interaction | MVRPVRHKKPVNYSQFDHSDSDDDFVSATVPLNKKSRTAPKELKQDKPKPNLNNLRKEEIPVQEKTPKKRMALDDKLYQRDLEVALALSVKELPTVTTNVQNSQDKSIEKHGSSKIETMNKSPHISNCSVASDYLDLDKITVEDDVGGVQGKRKAASKAAAQQRKILLEGSDGDSANDTEPDFAPGEDSEDDSDFCESEDNDEDFSMRKSKVKEIKKKEVKVKSPVEKKEKKSKSKCNALVTSVDSAPAAVKSESQSLPKKVSLSSDTTRKPLEIRSPSAESKKPKAVPPAASGGSRSSSSPLVVVSVKSPNQSLRLGLSRLARVKPLHPNATST [W287A]
